Here are results for 6 substances from paper PMC3463533.

A short description of data set [1]: NP-40-insoluble fraction, anti-V5 immunoblot.
Data set [2] in a line: anti-V5 immunoblot of culture medium. (A western blot detects proteins with antibodies after separation by electrophoresis.)
[3] abbreviates: glycan lost, control: untreated.
Setting [4] is: glycan lost, control: wild type.
[5] abbreviates: glycan changed form, control: untreated.

On to “Surfactant protein A2 (SP-A2): tunicamycin”, for which, in data set [1] (setting [3]), the “other: NP-40-insoluble aggregation” value is “increases”. For the same substance, the expression_or_secretion entry in data set [2] (setting [3]) is “decreases”.
For the substance Surfactant protein A2 (SP-A2): N207S, the “other: NP-40-insoluble aggregation” value in data set [1] (setting [4]) was “increases”. The expression_or_secretion result in data set [2] (setting [4]) is “decreases”.
In the case of Surfactant protein A2 (SP-A2): N207A, the “other: NP-40-insoluble aggregation” value in data set [1] (setting [4]) is “increases”. In data set [2] (setting [4]), the expression_or_secretion result was “decreases”.
“Surfactant protein A2 (SP-A2): swainsonine”: the “other: NP-40-insoluble aggregation” value in data set [1] (setting [5]) was “no change”. Moreover, in data set [2] (setting [5]), the expression_or_secretion entry is “no change”.
For the substance Surfactant protein A2 (SP-A2): N207Q, in data set [1] (setting [4]), the “other: NP-40-insoluble aggregation” value is listed as “increases”. Moreover, in data set [2] (setting [4]), the expression_or_secretion entry was “decreases”.
As to Surfactant protein A2 (SP-A2): N207T, the “other: NP-40-insoluble aggregation” value in data set [1] (setting [4]) is listed as “increases”. Further, the expression_or_secretion entry in data set [2] (setting [4]) is on record as “decreases”.
